Consider one molecule from article PMC3534898.

The experiment addresses Presenilin 1 (mouse (endogenous in primary neurons of CD1 mice)), P49769. Nature of the experiment: FRET or BRET. As to conditions: remark: other sources report otherwise. A general note: Bioluminescence resonance energy transfer reports proximity on the nanometre scale.

B1: amyloid β precursor protein, P12023 18-770 (natural protein)
chain: LEVPTDGNAGLLAEPQIAMFCGKLNMHMNVQNGKWESDPSGTKTCIGTKEGILQYCQEVYPELQITNVVEANQPVTIQNWCKRGRKQCKTHTHIVIPYRCLVGEFVSDALLVPDKCKFLHQERMDVCETHLHWHTVAKETCSEKSTNLHDYGMLLPCGIDKFRGVEFVCCPLAEESDSVDSADAEEDDSDVWWGGADTDYADGGEDKVVEVAEEEEVADVEEEEADDDEDVEDGDEVEEEAEEPYEEATERTTSTATTTTTTTESVEEVVREVCSEQAETGPCRAMISRWYFDVTEGKCVPFFYGGCGGNRNNFDTEEYCMAVCGSVSTQSLLKTTSEPLPQDPDKLPTTAASTPDAVDKYLETPGDENEHAHFQKAKERLEAKHRERMSQVMREWEEAERQAKNLPKADKKAVIQHFQEKVESLEQEAANERQQLVETHMARVEAMLNDRRRLALENYITALQAVPPRPHHVFNMLKKYVRAEQKDRQHTLKHFEHVRMVDPKKAAQIRSQVMTHLRVIYERMNQSLSLLYNVPAVAEEIQDEVDELLQKEQNYSDDVLANMISEPRISYGNDALMPSLTETKTTVELLPVNGEFSLDDLQPWHPFGVDSVPANTENEVEPVDARPAADRGLTTRPGSGLTNIKTEEISEVKMDAEFGHDSGFEVRHQKLVFFAEDVGSNKGAIIGLMVGGVVIATVIVITLVMLKKKQYTSIHHGVVEVDAAVTPEERHLSKMQQNGYENPTYKFFEQMQN
Turning to B1, the FRET efficiency (E FRET), vehicle treated cells came out at 7.07%.
